The data set has as its system MS2 coat protein. Description: apparent KD of MS2 coat protein; designed switch direction (-1 OFF switch, 1 ON switch): -1; higher = weaker reporter binding. The procedure, abridged: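 Designed RNA switches sharing common flanks were transcribed on Illumina chips by stalled E. coli RNA polymerase. They were titrated with SNAP-549-labelled MS2 coat protein, from 0.7 or 1.5 nM doubling to 3 µM, in Tris-HCl pH 7.5 buffer with KCl, MgCl2, BSA, DTT, tRNA and Tween-20. Titrations ran without input, with 200 uM small-molecule ligand, or with an oligonucleotide input. The apparent KD of each design is the median over its clusters, after curve-fitting of normalised cluster fluorescence.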

The mark [1] stands for this setting: input ligand: microRNA oligo, concentration not stated.
The mark [2] stands for this setting: Eterna round: R95, input ligand: FMN 200 uM.
[3] abbreviates: Eterna round: R95, input ligand: microRNA oligo, concentration not stated.
[4] abbreviates: Eterna round: R95, input ligand: none.

For “UACCUGAGGCAAAGCUUUAGGUAAACAUGAGGAUCACCCAUGUAGGAUAUGGUAGGCUUUGCUUACCAGAAGGACAUGUUAAUU [Mat - Exclusion NG 3 - Mod of JL - D33] (Eterna round: R96, puzzle: Exclusion NG 3)”, the “apparent KD of MS2 coat protein” value is, setting by setting: (input ligand: FMN 200 uM) 0.215 µM; under setting [1], 0.0419 µM; (input ligand: none) 0.0597 µM. Consider “UACUUCCGAGGAUAUACAUGAGGAUCACCCAUGUGCUUCAGCAUUGAAAGAUGCAUGGGUAGAAGGCGGUAGUU [LRO-Excl3-18] (puzzle: Exclusion 3)”, for which the “apparent KD of MS2 coat protein” value by setting is: under setting [2], 0.253 µM; under setting [3], 0.297 µM; under setting [4], 0.171 µM. Take “UACUUCUGAGGAUAUACAUAGAUUUACAUGAGGAUCACCCAUGUUCCUCUAUGUAUAAAUGUAGAAGGCAGAAGAU [Mat - Exclusion 5 - JL Mod - D61] (Eterna round: R97, puzzle: Exclusion 5)”: the “apparent KD of MS2 coat protein” value is, setting by setting: (input ligand: FMN 200 uM) 0.0878 µM; (input ligand: none) 0.0167 µM. With “UAGAUACAUGAGGAUCACCCAUGUGAGGAUAUGAAUAAGAAUAGAUAAGAUAGUAGAAUCAGAAGGCACAAUGG [Starry Exclusion 1.2] (puzzle: Exclusion 1)”, the “apparent KD of MS2 coat protein” value runs as follows: under setting [2], 0.0701 µM; under setting [3], 0.0474 µM; under setting [4], 0.0518 µM. On to “UAGAUACAUGAGGAUCACCCAUGUGAGGAUAUGAGAAUUAUAUUAAAUGAAUGAAUUUUCAGAAGGCACAAAGG [JR_Ex1_Sub051] (Eterna round: R97, puzzle: Exclusion 1)”, for which the “apparent KD of MS2 coat protein” value is, setting by setting: (input ligand: FMN 200 uM) 0.482 µM; (input ligand: none) 0.221 µM. Consider “UAGAUACAUGAGGAUCACCCAUGUGAGGAUAUGAGGGUUAGCUUAAAUGGGCUGACUUUCAGAAGGCACAAGAA [JR_Ex1_Sub057] (Eterna round: R97, puzzle: Exclusion 1)”, for which the “apparent KD of MS2 coat protein” value turned out to be 0.0947 µM (input ligand: FMN 200 uM) and 0.043 µM (input ligand: none).

In the case of “UAGCAACGAGGAUAUGCGGGCCUGAACCUAAAGUCGACCUUACAUGAGGAUCACCCAUGUAGAAGGCGUAGUGU [Eternabot (L2) Solution 71] (Eterna round: R97, puzzle: Exclusion 2)”, the “apparent KD of MS2 coat protein” value is, setting by setting: (input ligand: FMN 200 uM) 0.0168 µM; (input ligand: none) 0.0183 µM. On the same counts, the results for “UAGCAGAGAGGAUAUACAUUCAUCACCCGCGCAUCAUGCGCACAUGAGGAUCACCCAUGUAGAAGGCUCGUGCC [EX2 C.27] (Eterna round: R97, puzzle: Exclusion 2)” are 0.0743 µM and 0.0282 µM. The matching figures for “UAGGAGAGAGUGAGGAUAUCCGGAAGAGAGGAUCAGGAGAAGGCACAUGAGGAUCACCCAUGUAAAAGAGGGAA [I think I solved risk of not working] (Eterna round: R97, puzzle: Brourd's mod of Exclusion 4)”: 0.0635 µM and 0.0519 µM.

Turning to “UAGGAGCAAGGAUAUACGAGGAUAUGGUAGUUUGUAGAGUGACAUGAGGAUCACCCAUGUAGAAGGUGCGUGUG [JR_Exclu2_Sub0100] (puzzle: Exclusion 2)”, the “apparent KD of MS2 coat protein” value under setting [3] worked out at 0.0829 µM. On to “UAGGUGUGAGGAUAUGGUAAAGAAAAGAUGAUGAAAGAACUCCAGAAGGCACAUGAGGAUCACCCAUGUAGAUG [Mat - Exclusion 4 - Mod of JL - D32] (puzzle: Exclusion 4)”, for which the “apparent KD of MS2 coat protein” value under setting [3] came to 0.0287 µM. Take “UAGUACCAAGGAUAUGCGUGACCAUGGCCUCCGUGGUAGAGACAUGAGGAUCACCCAUGUAGAAGGUGGAUAAC [Eternabot (L1) Solution 74] (Eterna round: R97, puzzle: Exclusion 2)”: the “apparent KD of MS2 coat protein” value reads like this: (input ligand: FMN 200 uM) 0.401 µM; (input ligand: none) 0.335 µM. Regarding “UAGUUAUUCACAGGAUAUCGCCUCUUAUUACAUGAGGAUCACCCAUGUUUAUUUUGUUACAUGUUCGAGAAGGGUGUAGCCGUU [JR_ExcNG2_Sub045] (Eterna round: R96, puzzle: Exclusion NG 2)”, under setting [1], the “apparent KD of MS2 coat protein” value is 0.258 µM.

As for “UAUAAUACAUAGGAUAUCGAAAUAAUCAUUUAACGAGAAGGAUGAACAUGAGGAUCACCCAUGUGGUAUCAUGG [Mat - Exclusion 6 - JL Mod - D11] (puzzle: Exclusion 6)”, the “apparent KD of MS2 coat protein” value turned out to be 0.379 µM under setting [2], 0.328 µM under setting [3] and 0.319 µM under setting [4]. The matching figures for “UAUAGACAUGAGGAUCACCCAUGUGAGGAUAUGUACAACAACAAGCCGGAAGCGGAAUACAGAAGGCACAAAUA [JR_Exclusion1_Sub029] (puzzle: Exclusion 1)”: 0.0368 µM, 0.0357 µM and 0.0514 µM. As for “UAUAGGCGAGGAUAUACUAACAAACGGAUCGCCAAACAAGAACUUGAGGAUCACCCAAGUAGAAGGCGCAAUUG [Gezaonsoma] (Eterna round: R97, puzzle: Exclusion 2)”, the “apparent KD of MS2 coat protein” value was 0.0158 µM (input ligand: FMN 200 uM) and 0.0241 µM (input ligand: none). For the sequence “UAUAUAUAGUAAGGAUAUGUAAUUACUUUAUAAACAGAAGGUACUGACAUGAGGAUCACCCAUGUUUUAGUGUGGGCAUGUAGA [JMF's solution 37] (Eterna round: R96, puzzle: Exclusion NG 1)”, the “apparent KD of MS2 coat protein” value under setting [1] was 0.0701 µM. With “UAUAUAUAGUAAGGAUAUGUAAUUAUUUGAUAAACAGAAGGUACUGACAUGAGGAUCACCCAUGUUUUAGUGUGGGCAUGUAGA [JMF's solution 42] (Eterna round: R96, puzzle: Exclusion NG 1)”, the “apparent KD of MS2 coat protein” value under setting [1] stood at 0.0727 µM.

With “UAUAUAUAGUAAGGAUAUGUAUAUAGUUUAUAAACAGAAGGUACUGACAUGAGGAUCACCCAUGUUUUAGUGUGGGCAUGUAGA [JMF's solution 56] (Eterna round: R96, puzzle: Exclusion NG 1)”, the “apparent KD of MS2 coat protein” value under setting [1] was determined as 0.0613 µM. As for “UAUAUAUAGUAAGGAUAUGUAUAUAUUUAAUAAACAGAAGGUACUGACAUGAGGAUCACCCAUGUUUUAGUGUGGGCAUGUAGA [JMF's solution 63] (Eterna round: R96, puzzle: Exclusion NG 1)”, the “apparent KD of MS2 coat protein” value under setting [1] is 0.0599 µM. Still for that read-out and setting: next, “UAUAUAUAGUAAGGAUAUGUAUUAAUUUUAGAAACAGAAGGUACUGACAUGAGGAUCACCCAUGUUUUAGUGUGGGCAUGUAGA [JMF's solution 88] (Eterna round: R96, puzzle: Exclusion NG 1)”: 0.0757 µM. As to “UAUAUAUAGUAAGGAUAUGUAUUUAUUUAAUAAACAGAAGGUACUGACAUGAGGAUCACCCAUGUUUUAGUGUGGGCAUGUAGA [JMF's solution 19] (Eterna round: R96, puzzle: Exclusion NG 1)”, the “apparent KD of MS2 coat protein” value under setting [1] was determined as 0.0663 µM. “UAUAUGUCAGGAUAUCGAUUAGAACAGAAUUUAACAAUAGUCGAGAAGGGACAUGAGGAUCACCCAUGUUCAAC [JR_Ex4_Sub021] (Eterna round: R97, puzzle: Exclusion 4)”: the “apparent KD of MS2 coat protein” value is 0.0417 µM (input ligand: FMN 200 uM) and 0.0205 µM (input ligand: none). As to “UAUAUGUUAGGAUAUUAGUAGUAAAUAAAUAAAAUUAUUACUGAGAAGGGACAUGAGGAUCACCCAUGUACCUC [Salish 062 v33] (Eterna round: R97, puzzle: Exclusion 4)”, the “apparent KD of MS2 coat protein” value came to 0.0219 µM (input ligand: FMN 200 uM) and 0.0127 µM (input ligand: none). As to “UAUGGGUGUGUGAGGAUAUACGAAGGCAGUGGCCAGUAGAAGGUACAUGAGGAUCACCCAUGUGUCCAAAAGUG [Isonge] (puzzle: Brourd's mod of Exclusion 4)”, the “apparent KD of MS2 coat protein” value under setting [3] turned out to be 0.0139 µM.

The values are drawn from the supplement of paper PMC9170038.
